Reference: the supplement of paper PMC10567573

B1: WDFY1 (parent)
chain: LLIPKEDGVITASEDRTIRVWLKR

Variants of: B1
Experiment: protein stability index of a GFP-peptide fusion (GPS, HEK-293T) (PSI 1-6); higher = more stable
Settings: c terminus: a fixed tail appended
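Further: lentivirally expressed fusions sorted by FACS into six bins by GFP to DsRed ratio, PSI derived from sequencing read proportions per bin multiplied by bin number.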

| Variant | protein stability index |
| --- | --- |
| LLIPKETGVITASEDRTIRVWLKR | 2.37 |
| LLIPKEFGVITASEDRTIRVWLKR | 2.7 |
| LLIPKEWGVITASEDRTIRVWLKR | 1.33 |
| LLIPKEHGVITASEDRTIRVWLKR | 1.42 |
| LLIPKEKGVITASEDRTIRVWLKR | 1.56 |
| LLIPKEMGVITASEDRTIRVWLKR | 1.44 |
| LLIPKEIGVITASEDRTIRVWLKR | 1.28 |
| LLIPKECGVITASEDRTIRVWLKR | 1.75 |
| LLIPKEAGVITASEDRTIRVWLKR | 2.06 |
| LLIPKEPGVITASEDRTIRVWLKR | 1.66 |
| LLIPKENGVITASEDRTIRVWLKR | 1.58 |
| LLIPKEQGVITASEDRTIRVWLKR | 2.1 |
| LLIPKEGGVITASEDRTIRVWLKR | 1.77 |
| LLIPKEEGVITASEDRTIRVWLKR | 3.03 |
| LLIPKEYGVITASEDRTIRVWLKR | 1.3 |
| LLIPKEVGVITASEDRTIRVWLKR | 1.8 |
| LLIPKESGVITASEDRTIRVWLKR | 1.39 |
| LLIPKELGVITASEDRTIRVWLKR | 2.05 |
| LLIPKEDGGITASEDRTIRVWLKR | 2.4 |
| LLIPKEDGTITASEDRTIRVWLKR | 2.14 |
| LLIPKEDGWITASEDRTIRVWLKR | 2.22 |
| LLIPKEDGHITASEDRTIRVWLKR | 2.48 |
| LLIPKEDGAITASEDRTIRVWLKR | 2.58 |
| LLIPKEDGSITASEDRTIRVWLKR | 2.74 |

| Variant | protein stability index |
| --- | --- |
| LLIPKEDGKITASEDRTIRVWLKR | 1.69 |
| LLIPKEDGQITASEDRTIRVWLKR | 2.56 |
| LLIPKEDGPITASEDRTIRVWLKR | 3.22 |
| LLIPKEDGYITASEDRTIRVWLKR | 1.02 |
| LLIPKEDGRITASEDRTIRVWLKR | 2.33 |
| LLIPKEDGCITASEDRTIRVWLKR | 1.65 |
| LLIPKEDGNITASEDRTIRVWLKR | 2.44 |
| LLIPKEDGMITASEDRTIRVWLKR | 2.21 |
| LLIPKEDGFITASEDRTIRVWLKR | 1.81 |
| LLIPKEDGEITASEDRTIRVWLKR | 2.6 |
| LLIPKEDGIITASEDRTIRVWLKR | 2.77 |
| LLIPKEDGVITASEDRSIRVWLKR | 1.8 |
| LLIPKEDGVITASEDRVIRVWLKR | 1.71 |
| LLIPKEDGVITASEDRAIRVWLKR | 2.74 |
| LLIPKEDGVITASEDRMIRVWLKR | 1.73 |
| LLIPKEDGVITASEDRIIRVWLKR | 1.61 |
| LLIPKEDGVITASEDRDIRVWLKR | 1.94 |
| LLIPKEDGVITASEDRFIRVWLKR | 2.12 |
| LLIPKEDGVITASEDRWIRVWLKR | 2.16 |
| LLIPKEDGVITASEDRPIRVWLKR | 2.51 |
| LLIPKEDGVITASEDRLIRVWLKR | 1.82 |
| LLIPKEDGVITASEDRGIRVWLKR | 1.39 |
| LLIPKEDGVITASEDREIRVWLKR | 1.81 |
| LLIPKEDGVITASEDRRIRVWLKR | 2.29 |

| Variant | protein stability index |
| --- | --- |
| LLIPKEDGVITASEDRNIRVWLKR | 2.77 |
| LLIPKEDGVITASEDRYIRVWLKR | 1.33 |
| LLIPKEDGVITASEDRHIRVWLKR | 3.16 |
| LLIPKEDGVITASEDRCIRVWLKR | 2.1 |
| LLIPKEDGVITASEDRQIRVWLKR | 2.02 |
| LLIPKEDGVCTASEDRTIRVWLKR | 1.94 |
| LLIPKEDGVLTASEDRTIRVWLKR | 2.21 |
| LLIPKEDGVDTASEDRTIRVWLKR | 2.83 |
| LLIPKEDGVNTASEDRTIRVWLKR | 2.54 |
| LLIPKEDGVMTASEDRTIRVWLKR | 2.14 |
| LLIPKEDGVRTASEDRTIRVWLKR | 2.07 |
| LLIPKEDGVETASEDRTIRVWLKR | 2.68 |
| LLIPKEDGVSTASEDRTIRVWLKR | 2.07 |
| LLIPKEDGVATASEDRTIRVWLKR | 2.4 |
| LLIPKEDGVPTASEDRTIRVWLKR | 4.2 |
| LLIPKEDGVGTASEDRTIRVWLKR | 2.76 |
| LLIPKEDGVYTASEDRTIRVWLKR | 1.91 |
| LLIPKEDGVKTASEDRTIRVWLKR | 2.17 |
| LLIPKEDGVQTASEDRTIRVWLKR | 2.62 |
| LLIPKEDGVFTASEDRTIRVWLKR | 2.42 |
| LLIPKEDGVHTASEDRTIRVWLKR | 1.94 |
| LLIPKEDGVTTASEDRTIRVWLKR | 2.47 |
| LLIPKEDTVITASEDRTIRVWLKR | 2.55 |
| LLIPKEDHVITASEDRTIRVWLKR | 1.78 |

| Variant | protein stability index |
| --- | --- |
| LLIPKEDWVITASEDRTIRVWLKR | 1.94 |
| LLIPKEDSVITASEDRTIRVWLKR | 1.95 |
| LLIPKEDKVITASEDRTIRVWLKR | 1.99 |
| LLIPKEDEVITASEDRTIRVWLKR | 1.31 |
| LLIPKEDPVITASEDRTIRVWLKR | 2.41 |
| LLIPKEDNVITASEDRTIRVWLKR | 2.07 |
| LLIPKEDCVITASEDRTIRVWLKR | 2.23 |
| LLIPKEDYVITASEDRTIRVWLKR | 1.74 |
| LLIPKEDLVITASEDRTIRVWLKR | 1.03 |
| LLIPKEDFVITASEDRTIRVWLKR | 1.48 |
| LLIPKEDIVITASEDRTIRVWLKR | 1.41 |
| LLIPKEDDVITASEDRTIRVWLKR | 2.27 |
| LLIPKEDRVITASEDRTIRVWLKR | 2.3 |
| LLIPKEDMVITASEDRTIRVWLKR | 1.14 |
| LLIPKEDVVITASEDRTIRVWLKR | 1.58 |
| LLIPKEDQVITASEDRTIRVWLKR | 1.58 |
| LLIPKEDGVITASEDRTERVWLKR | 2.52 |
| LLIPKEDGVITASEDRTGRVWLKR | 2.93 |
| LLIPKEDGVITASEDRTLRVWLKR | 2.29 |
| LLIPKEDGVITASEDRTKRVWLKR | 1.74 |
| LLIPKEDGVITASEDRTHRVWLKR | 2.34 |
| LLIPKEDGVITASEDRTCRVWLKR | 2.07 |
